Experimental data published in patent US4835253A, “Specific inhibitors of tissue kallikrein” (The University Hospital, priority 1987, dated 1989).

Key:
Format in all cases: biochemical, human
[1] = system: T1, CC(=O)N[C@@H](CO)C(=O)N1CCC[C@H]1C(=O)N[C@@H](Cc1ccccc1)C(=O)N[C@@H](CCCNC(=N)N)C(=O)N[C@@H](CO)C(=O)N[C@H](C(=O)N[C@@H](CCC(N)=O)C(N)=O)C(C)C; assay: KM determination: hydrolysis of substrate analogues by HUK (HPLC, scintillation counting); conditions: other: hydrolysis by HUK, pH 9.0, 37 C, thirty minutes
T1 construct: Human urinary kallikrein (hereinafter "HUK") was highly purified using a modification of published methods; from tissue; host or cells: human urine
Protocol: (§1) Human urinary kallikrein (hereinafter "HUK") was highly purified using a modification of published methods that employ ultrafiltration, aprotinin-CH-sepharose affinity chromatography, and Sephadex G-100 gel filtration [ole-MoiYoi et al., Proc. Natl. Acad. Sci. USA 76: 3121-3125 (1979)]. […] The pH of each fraction was determined immediately upon elution, and the fraction was neutralized by addition of 2.0 ml of 2M Tris-HCL buffer (pH 8.0).
(§2) KM Determination: Hydrolysis of the substrate analogue inhibitors by HUK was measured by combining the test inhibitor at different concentrations on either side of the KM value with the enzyme at pH 9.0 for thirty minutes at 37 C. The cleavage products were separated from the starting material in the digest by HPLC on a Beckman octadecylsilane (ODS) column (1×25 cm) using a thirty minute gradient of from 0-70% CH3 CN in triethylammonium phosphate buffer (pH 7.0). The starting materials and reaction products were completely resolved under these conditions. Absorbance of the HPLC effluent was monitored at 220 nm. Individual fractions were collected and the amount of peptide degradation products was quantitated by counting in a liquid scintillation counter. Samples containing individual inhibitors were incubated without HUK and solvent blanks were also chromatographed and analyzed in the same way.
(§3) For test purposes, in these HUA cleavage studies, individual peptide sequences were synthesized, purified, and characterized as previously described herein. For these cleavage studies, doubly labelled peptides were prepared using [^3 H]-valine and […] respectively. In addition, 6.0N HCL-dioxane was used for removal of tert-butoxycarbonyl protecting groups and 90% hydrogen fluoride/10% anisole (volume/volume) for global deprotection on completion of the synthesis. After extraction and gel filtration on Sephadex G-15, final purification was completed by isocratic elution from a synchrom RP-P column (2.1×25 cm) with CH3 CN--H2 O (8 ml/min). The resultant peptides were deemed to be homogeneous by amino acid analysis; high performance liquid chromatography; thin layer chromatography; and A230 /A260 ratio analysis. […]

[2] = system: T2, CC(=O)N[C@@H](Cc1ccccc1)C(=O)N[C@@H](CCCN=C(N)N)C(=O)N[C@@H](CO)C(=O)N[C@H](C(=O)N[C@@H](CCC(N)=O)C(N)=O)C(C)C; assay: as above; conditions: other: hydrolysis by HUK, pH 9.0, 37 C, thirty minutes
T2 construct: Human urinary kallikrein (hereinafter "HUK") was highly purified using a modification of published methods; from tissue; host or cells: human urine
Protocol: as §1, §2, §3

[3] = system: T3, CC(=O)N1CCC[C@H]1C(=O)N[C@@H](Cc1ccccc1)C(=O)N[C@@H](CCCNC(=N)N)C(=O)N[C@@H](CO)C(=O)N[C@H](C(=O)N[C@@H](CCC(N)=O)C(N)=O)C(C)C; assay: as above; conditions: other: hydrolysis by HUK, pH 9.0, 37 C, thirty minutes
T3 construct: Human urinary kallikrein (hereinafter "HUK") was highly purified using a modification of published methods; from tissue; host or cells: human urine
Protocol: as §1, §2, §3

[4] = system: T4, N=C(N)NCCC[C@H](NC(=O)[C@H](CC1CCCCC1)NC(=O)[C@H](N)c1ccccc1)C(=O)Nc1ccc([N+](=O)[O-])cc1; assay: Km and Vmax of tripeptide 4-nitroanilides with HUK; conditions: other: tripeptide 4-nitroanilide as HUK substrate; pH 9.0; 37.0 °C
T4 construct: Human urinary kallikrein (hereinafter "HUK") was highly purified using a modification of published methods; from tissue; host or cells: human urine
Text: (§4) An evaluation of other possible peptide sequences and their potential effect as substrate analogue inhibitors specifically of tissue kallikrein was undertaken using chromogenic substrates comprising alternate series of tripeptide 4-nitroanilides using previously described methods [Amundsen et al., "Methods For The Determination Of Glandular Kallikrein By Means Of A Chromogenic Tripeptide Substrate," in Kinins-II. Part A. Plenum Press, 1979, pages 83-95]. This methodology relies on the capacity of HUK to cleave p-nitroaniline from specifically synthesized tripeptide 4-nitroanilines. Controls for this experimental series included S-2266 comprising D-Val-Leu-Arg-4NA; S-2444 comprising D-Glu-Gly-Arg-4NA; and S-2302 comprising D-Pro-Phe-Arg-4NA respectively. The 50% inhibitory concentration (IC50) values for each synthesized tripeptide 4-nitroanilide was determined at 37 C. at pH 9.0 using the specific kallikrein substrates S-2266 (Kabi, Helena Laboratories, Beaumont, Tex.). 4.0 nanograms (hereinafter "ng") of HUK were used in each sample. Blanks lacking S-2266 were run in parallel to correct for hydrolysis of all samples. In all cases, the amount of 4-nitroaniline generated from each tripeptide was less than 10% of that observed for the hydrolysis of S-2266.
(§5) Subsequently, the Km and Vmax for each test tripeptide 4-nitroanilide was determined using conventional techniques in an HP-8450 diode array spectrophotometer (Hewlett Packard Company) attached to a HP-85 microcomputer. The multicomponent assay program was modified to allow the simultaneous determination of the reaction velocity in four samples.

[5] = system: T5, NCCCC[C@H](NC(=O)[C@H](CC1CCCCC1)NC(=O)[C@H](N)C1CCCCC1)C(=O)Nc1ccc([N+](=O)[O-])cc1; assay: Km and Vmax of tripeptide 4-nitroanilides with HUK; conditions: other: tripeptide 4-nitroanilide as HUK substrate; pH 9.0; 37.0 °C
T5 construct: Human urinary kallikrein (hereinafter "HUK") was highly purified using a modification of published methods; from tissue; host or cells: human urine
Text: as §4, §5

[6] = system: T6, N=C(N)NCCC[C@H](NC(=O)[C@H](CC1CCCCC1)NC(=O)[C@@H](N)C1CCCCC1)C(=O)Nc1ccc([N+](=O)[O-])cc1; assay: Km and Vmax of tripeptide 4-nitroanilides with HUK; conditions: other: tripeptide 4-nitroanilide as HUK substrate; pH 9.0; 37.0 °C
T6 construct: Human urinary kallikrein (hereinafter "HUK") was highly purified using a modification of published methods; from tissue; host or cells: human urine
Text: as §4, §5

[7] = system: T7, CC[C@H](C)[C@H](N)C(=O)N[C@@H](CC1CCCCC1)C(=O)N[C@@H](CCCNC(=N)N)C(=O)Nc1ccc([N+](=O)[O-])cc1; assay: Km and Vmax of tripeptide 4-nitroanilides with HUK; conditions: other: tripeptide 4-nitroanilide as HUK substrate; pH 9.0; 37.0 °C
T7 construct: Human urinary kallikrein (hereinafter "HUK") was highly purified using a modification of published methods; from tissue; host or cells: human urine
Text: as §4, §5

[8] = system: T8, N=C(N)NCCC[C@H](NC(=O)[C@H](Cc1ccccc1)NC(=O)[C@H](N)C1CCCCC1)C(=O)Nc1ccc([N+](=O)[O-])cc1; assay: Km and Vmax of tripeptide 4-nitroanilides with HUK; conditions: other: tripeptide 4-nitroanilide as HUK substrate; pH 9.0; 37.0 °C
T8 construct: Human urinary kallikrein (hereinafter "HUK") was highly purified using a modification of published methods; from tissue; host or cells: human urine
Text: as §4, §5

[9] = system: T9, NCCCC[C@H](NC(=O)[C@H](CC1CCCCC1)NC(=O)[C@H](N)c1ccccc1)C(=O)Nc1ccc([N+](=O)[O-])cc1; assay: Km and Vmax of tripeptide 4-nitroanilides with HUK; conditions: other: tripeptide 4-nitroanilide as HUK substrate; pH 9.0; 37.0 °C
T9 construct: Human urinary kallikrein (hereinafter "HUK") was highly purified using a modification of published methods; from tissue; host or cells: human urine
Text: as §4, §5

Question: What does the source list for Human urinary kallikrein (Homo sapiens)?
Answer: Km [1]: 37.6 µM; Km [2]: 307 µM; kcat [2]: 188 mol/mol/sec; Km [3]: 482 µM; kcat [3]: 229 mol/mol/sec; Km [4]: 1.96 µM; Km [5]: 46.6 µM; Km [6]: 12.5 µM; Km [7]: 1.33 µM; Km [8]: 0.84 µM; Km [9]: 48.1 µM
